Measurements taken from paper PMC6546054 (Genes & Development, 2019).
One block for each molecule: values may come before it.

B1: His6IraD (wild type) (natural protein, E. coli K12, UniProt P39375 1-130, looked up)
chain: MMRQSLQAVLPEISGNKTSSLRKSVCSDLLTLFNSPHSALPSLLVSGMPEWQVHNPSDKHLQSWYCRQLRSALLFHEPRIAALQVNLKEAYCHTLAISLEIMLYHDDEPLTFDLVWDNGGWRSATLENVS

Tests used:
[1] = target: RssB (wild type) (E. coli K12) (UniProt P0AEV1); assay: cross-linking
RssB^AAA = target: T1, RssB^AAA (E. coli K12, UniProt P0AEV1 1-337, E134-E137 to EAAA); assay: pull-down
T1 sequence (looked up): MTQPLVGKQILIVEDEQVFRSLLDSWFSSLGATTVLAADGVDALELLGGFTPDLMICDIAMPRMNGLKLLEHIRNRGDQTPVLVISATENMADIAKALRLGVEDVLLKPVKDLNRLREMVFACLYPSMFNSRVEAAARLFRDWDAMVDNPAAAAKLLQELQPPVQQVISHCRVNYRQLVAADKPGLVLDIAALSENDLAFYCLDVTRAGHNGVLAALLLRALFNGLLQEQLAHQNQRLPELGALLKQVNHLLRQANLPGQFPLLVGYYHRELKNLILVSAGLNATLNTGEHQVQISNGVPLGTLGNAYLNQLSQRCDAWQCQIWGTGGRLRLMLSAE

RssB (wild type) = target: T2, RssB (wild type) (E. coli K12, UniProt P0AEV1 1-337); assay: pull-down
T2 sequence (looked up): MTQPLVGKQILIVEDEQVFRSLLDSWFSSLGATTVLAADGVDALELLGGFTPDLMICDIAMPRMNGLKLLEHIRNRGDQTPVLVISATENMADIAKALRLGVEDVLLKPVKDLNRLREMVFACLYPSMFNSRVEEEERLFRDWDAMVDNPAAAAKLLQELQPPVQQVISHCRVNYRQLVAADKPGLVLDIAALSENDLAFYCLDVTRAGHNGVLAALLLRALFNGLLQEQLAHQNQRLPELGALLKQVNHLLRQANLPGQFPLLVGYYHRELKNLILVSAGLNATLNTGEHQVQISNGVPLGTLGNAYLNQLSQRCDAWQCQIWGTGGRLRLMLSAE

RssB^R115A = target: T3, RssB^R115A (E. coli K12, UniProt P0AEV1 1-337, R115A); assay: pull-down
T3 sequence (looked up): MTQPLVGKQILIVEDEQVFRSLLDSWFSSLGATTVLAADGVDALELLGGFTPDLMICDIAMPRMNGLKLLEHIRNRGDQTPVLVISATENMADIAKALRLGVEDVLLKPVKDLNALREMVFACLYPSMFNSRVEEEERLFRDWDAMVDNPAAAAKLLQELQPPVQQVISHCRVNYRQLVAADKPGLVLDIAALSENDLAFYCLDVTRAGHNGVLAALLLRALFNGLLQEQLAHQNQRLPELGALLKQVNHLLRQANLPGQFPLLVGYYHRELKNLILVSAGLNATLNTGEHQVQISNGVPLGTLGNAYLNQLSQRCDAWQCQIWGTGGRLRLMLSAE

RssB^(Q254A N256A) = target: T4, RssB^(Q254A N256A) (E. coli K12, UniProt P0AEV1 1-337, Q254A | N256A); assay: pull-down
T4 sequence (looked up): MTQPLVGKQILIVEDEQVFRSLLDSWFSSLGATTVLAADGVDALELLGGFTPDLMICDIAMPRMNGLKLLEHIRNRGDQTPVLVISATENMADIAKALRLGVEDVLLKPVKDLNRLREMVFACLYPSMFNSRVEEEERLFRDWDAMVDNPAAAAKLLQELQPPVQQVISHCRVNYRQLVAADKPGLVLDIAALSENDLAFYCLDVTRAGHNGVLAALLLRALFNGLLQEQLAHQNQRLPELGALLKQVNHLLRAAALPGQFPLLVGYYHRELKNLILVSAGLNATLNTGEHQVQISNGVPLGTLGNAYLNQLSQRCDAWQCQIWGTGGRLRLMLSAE

His6IraD (wild type) = target: B1; assay: pull-down
cross-linking = target: the molecule itself; assay: cross-linking

Molecule: B1
binding result (RssB^AAA): binds
binding result (RssB (wild type)): binds
binding result (RssB^R115A): binds
binding result (RssB^(Q254A N256A)): binds

B3: RssB^CC (natural protein, E. coli K12, UniProt P0AEV1 1-337, looked up)
chain: MTQPLVGKQILIVEDEQVFRSLLDSWFSCLGATTVLAADGVDALELLGGFTPDLMICDIAMPRMNGLKLLEHIRNRGDQTPVLVISATENMADIAKALRLGVEDVLLKPVKDLNRLREMVFACLYPSMFNSRVEEEERLFRDWDAMVDNPAAAAKLLQELQPPVQQVISHCRVNYRQLVAADKPGLVLDIAALSENDLAFYCLDVTRAGHNGVLAALLLRALFNGLLQCQLAHQNQRLPELGALLKQVNHLLRQANLPGQFPLLVGYYHRELKNLILVSAGLNATLNTGEHQVQISNGVPLGTLGNAYLNQLSQRCDAWQCQIWGTGGRLRLMLSAE
stoichiometry N (cross-linking): 2

Other lines, results leading:

stoichiometry N [1]: 2
Molecule: RssB (wild type) (from UniProt P0AEV1 1-337) (natural protein)

binding relative to wild type (His6IraD (wild type)): 18 ± 3%
B2: RssB^D104N (natural protein, E. coli K12, UniProt P0AEV1 1-337, looked up)
chain: MTQPLVGKQILIVEDEQVFRSLLDSWFSSLGATTVLAADGVDALELLGGFTPDLMICDIAMPRMNGLKLLEHIRNRGDQTPVLVISATENMADIAKALRLGVENVLLKPVKDLNRLREMVFACLYPSMFNSRVEEEERLFRDWDAMVDNPAAAAKLLQELQPPVQQVISHCRVNYRQLVAADKPGLVLDIAALSENDLAFYCLDVTRAGHNGVLAALLLRALFNGLLQEQLAHQNQRLPELGALLKQVNHLLRQANLPGQFPLLVGYYHRELKNLILVSAGLNATLNTGEHQVQISNGVPLGTLGNAYLNQLSQRCDAWQCQIWGTGGRLRLMLSAE
